Tested on: Abp1 PPIs
Assay: DHFR-PCA of Abp1 SH3-swapped baits (Fig. 2B-D, S2C, S2F);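 for Protein-protein interaction distance between Abp1 SH3-swapped baits, to ABP1: Euclidean distance between DHFR-PCA score profiles of the baits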;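 for Protein-protein interaction distance between Abp1 SH3-swapped baits, to BEM1-2: Euclidean distance between DHFR-PCA score profiles of the baits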;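 for Protein-protein interaction distance between Abp1 SH3-swapped baits, to BOI1: Euclidean distance between DHFR-PCA score profiles of the baits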;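 for Protein-protein interaction distance between Abp1 SH3-swapped baits, to BZZ1-1: Euclidean distance between DHFR-PCA score profiles of the baits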
Type: cell-based, Saccharomyces cerevisiae
Method in brief: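 Interactions were scored by DHFR protein-fragment complementation. DHFR F[1,2]-tagged Abp1 strains, whose SH3 was swapped for yeast or human ortholog domains, were crossed on YPD at 30 °C for 48 h with a 1536-format array of 575 prey-DHFR F[3] strains and 40 negatives, giving four replicates per pair. PCA selection lasted 4 days after double diploid selection.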

[1] = number of PPIs, difference, Abp1 SH3-swapped with the listed SH3, Fig2D,S2F

B1: MYO5 (protein, UniProt Q04439 1-1219, looked up)
Myosin-5: MAILKRGARKKVHQEPAKRSANIKKATFDSSKKKEVGVSDLTLLSKISDEAINENLKKRFLNATIYTYIGHVLISVNPFRDLGIYTDAVMNEYKGKNRLEVPPHVFAIAESMYYNMKSYNENQCVIISGESGAGKTEAAKRIMQYIAAASSTHTESIGKIKDMVLATNPLLESFGCAKTLRNNNSSRHGKYLEIKFNNQFEPCAGNITNYLLEKQRVVSQIKNERNFHIFYQFTKGASDAYRQTFGVQKPEQYVYTAAAGCISAETIDDLQDYQETLKAMRVIGLGQEEQDQIFRMLAAILWIGNVSFIENEEGNAQVRDTSVTDFVAYLLQIDSQLLIKSLVERIMETNHGMKRGSVYHVPLNIVQADAVRDALAKAIYNNLFDWIVSRVNKSLQAFPGAEKSIGILDIYGFEIFEHNSFEQICINYVNEKLQQIFIQLTLKSEQETYEREKIQWTPIKYFDNKVVCDLIEARRPPGIFAAMNDSVATAHADSNAADQAFAQRLNLFTTNPHFDLRSNKFVIKHYAGDVTYDIDGITDKNKDQLQKDLVELIGTTTNTFLATIFPDTVDRESKRRPPTAGDKIIKSANDLVETLSKAQPSYIRTIKPNETKSPNDYDDRQVLHQIKYLGLQENVRIRRAGFAYRQVFEKFVERFYLLSPHCSYAGDYTWQGDTLDAVKYILQDSSIPQQEYQLGVTSVFIKTPETLFALEHMRDRYWHNMAARIQRAWRRFLQRRIDAATKIQRTIRERKEGNKYEKLRDYGTKVLGGRKERRSMSLLGYRAFMGDYLSCNESKSKGAYIKRQVSIKEKVIFSIHGEALHTKFGRSAQRLKKTFLLTPTTLYIVGQTLVQNAMTYTQDYKIDVRNIQAVSLTNLQDDWVAIKLASSGQPDPLINTYFKTELITHLKRLNDKIQIKIGSAIEYQKKPGKLHSVKCQINESAPKYGDIYKSSTISVRRGNPPNSQVHKKPRKKSSISSGYHASSSQATRRPVSIAAAQHVPTAPASRHSKKPAPPPPGMQNKAATRRSVPNPASTLTASQSNARPSPPTAATRATPAATPAAAAMGSGRQANIPPPPPPPPPSSKPKEPMFEAAYDFPGSGSPSELPLKKGDVIYITREEPSGWSLGKLLDGSKEGWVPTAYMKPHSGNNNIPTPPQNRDVPKPVLNSVQHDNTSANVIPAAAQASLGDGLANALAARANKMRLESDDEEANEDEEEDDW
- Protein-protein interaction distance between Abp1 SH3-swapped baits, to ABP1 (Abp1 bait with swapped SH3, distance to bait with ABP1 SH3, sheet Fig2C): 12.37
- Protein-protein interaction distance between Abp1 SH3-swapped baits, to BBC1 (distance to Abp1 bait with BBC1 SH3, sheet Fig2C): 12.56
- Protein-protein interaction distance between Abp1 SH3-swapped baits, to BEM1-1 (distance to Abp1 bait with BEM1-1 SH3, sheet Fig2C): 17.04
- Protein-protein interaction distance between Abp1 SH3-swapped baits, to BEM1-2 (distance to Abp1 bait with BEM1-2 SH3, sheet Fig2C): 34.62
- Protein-protein interaction distance between Abp1 SH3-swapped baits, to BOI1 (distance to Abp1 bait with BOI1 SH3, sheet Fig2C): 14.33
- Protein-protein interaction distance between Abp1 SH3-swapped baits, to BOI2 (distance to Abp1 bait with BOI2 SH3, sheet Fig2C): 17.59
- Protein-protein interaction distance between Abp1 SH3-swapped baits, to BUD14 (distance to Abp1 bait with BUD14 SH3, sheet Fig2C): 20.27
- Protein-protein interaction distance between Abp1 SH3-swapped baits, to BZZ1-1 (distance to Abp1 bait with BZZ1-1 SH3, sheet Fig2C): 9.674
- Protein-protein interaction distance between Abp1 SH3-swapped baits, to BZZ1-2 (distance to Abp1 bait with BZZ1-2 SH3, sheet Fig2C): 13.83
- Protein-protein interaction distance between Abp1 SH3-swapped baits, to CDC25 (distance to Abp1 bait with CDC25 SH3, sheet Fig2C): 28.8
- Protein-protein interaction distance between Abp1 SH3-swapped baits, to CTTN (distance to Abp1 bait with CTTN SH3, sheet Fig2C): 14.85
- Protein-protein interaction distance between Abp1 SH3-swapped baits, to CYK3 (distance to Abp1 bait with CYK3 SH3, sheet Fig2C): 29.49
- Protein-protein interaction distance between Abp1 SH3-swapped baits, to DBNL (distance to Abp1 bait with DBNL SH3, sheet Fig2C): 9.722
- Protein-protein interaction distance between Abp1 SH3-swapped baits, to FUS1 (distance to Abp1 bait with FUS1 SH3, sheet Fig2C): 21.47
- Protein-protein interaction distance between Abp1 SH3-swapped baits, to HCLS1 (distance to Abp1 bait with HCLS1 SH3, sheet Fig2C): 10.37
- Protein-protein interaction distance between Abp1 SH3-swapped baits, to HOF1 (distance to Abp1 bait with HOF1 SH3, sheet Fig2C): 33.29
- Protein-protein interaction distance between Abp1 SH3-swapped baits, to HSE1 (distance to Abp1 bait with HSE1 SH3, sheet Fig2C): 10.84
- Protein-protein interaction distance between Abp1 SH3-swapped baits, to LSB1 (distance to Abp1 bait with LSB1 SH3, sheet Fig2C): 7.822
- Protein-protein interaction distance between Abp1 SH3-swapped baits, to LSB3 (distance to Abp1 bait with LSB3 SH3, sheet Fig2C): 8.063
- Protein-protein interaction distance between Abp1 SH3-swapped baits, to MYO3 (distance to Abp1 bait with MYO3 SH3, sheet Fig2C): 5.861
- Protein-protein interaction distance between Abp1 SH3-swapped baits, to MYO5 (distance to Abp1 bait with MYO5 SH3, sheet Fig2C): 0.00
- Protein-protein interaction distance between Abp1 SH3-swapped baits, to NBP2 (distance to Abp1 bait with NBP2 SH3, sheet Fig2C): 19.41
- Protein-protein interaction distance between Abp1 SH3-swapped baits, to PEX13 (distance to Abp1 bait with PEX13 SH3, sheet Fig2C): 7.969
- Protein-protein interaction distance between Abp1 SH3-swapped baits, to PIN3 (distance to Abp1 bait with PIN3 SH3, sheet Fig2C): 6.67
- Protein-protein interaction distance between Abp1 SH3-swapped baits, to RVS167 (distance to Abp1 bait with RVS167 SH3, sheet Fig2C): 7.689
- Protein-protein interaction distance between Abp1 SH3-swapped baits, to SDC25 (distance to Abp1 bait with SDC25 SH3, sheet Fig2C): 35.29
- Protein-protein interaction distance between Abp1 SH3-swapped baits, to SHO1 (distance to Abp1 bait with SHO1 SH3, sheet Fig2C): 10.26
- Protein-protein interaction distance between Abp1 SH3-swapped baits, to SLA1-1 (distance to Abp1 bait with SLA1-1 SH3, sheet Fig2C): 31.36
- Protein-protein interaction distance between Abp1 SH3-swapped baits, to SLA1-2 (distance to Abp1 bait with SLA1-2 SH3, sheet Fig2C): 22.13
- Protein-protein interaction distance between Abp1 SH3-swapped baits, to SLA1-3 (distance to Abp1 bait with SLA1-3 SH3, sheet Fig2C): 7.257
- Protein-protein interaction distance between Abp1 SH3-swapped baits, to YSC84 (distance to Abp1 bait with YSC84 SH3, sheet Fig2C): 8.128
- PPIs gained by Abp1 - SH3-dependent PPIs gained by Abp1 [1]: 27
- SH3-dependent PPIs - SH3-dependent PPIs gained by Abp1 [1]: 16
- SH3-dependent PPIs gained by Abp1 (number of PPIs, Abp1 SH3-swapped with the listed SH3, DHFR-PCA, Fig2D,S2F): 3

— PMC7954794, “Protein context shapes the specificity of SH3 domain-mediated interactions in vivo” (Nature Communications, 2021)
